Molecular target: the molecule itself
Assay: native gel of lysates from non-stressed cells (self-association; cells also hold endogenous NPM); FIG. 5B

B1: flag-tagged NPM normal mimic (T86A-S88A-T95A-T234E-S242E) (other)
chain: MEDSMDMDMSPLRPQNYLFGCELKADKDYHFKVDNDENEHQLSLRTVSLGAGAKDELHIVEAEAMNYEGSPIKVTLATLKMSVQPAVALGGFEIAPPVVLRLKCGSGPVHISGQHLVAVEEDAESEDEEEEDVKLLSISGKRSAPGGGSKVPQKKVKLAADEDDDDDDEEDDDEDDDDDDFDDEEAEEKAPVKKSIRDTPAKNAQKSNQNGKDSKPSSTPRSKGQESFKKQEKEPKTPKGPESVEDIKAKMQASIEKGGSLPKVEAKFINYVKNCFRMTDQEAIQDLWQWRKSL
notes: Lentiviral expression in primary PTEC; also called normal mimic NPM; NrNPM; not shown: amino-terminal flag tag
B1: binds.
